According to article PMC9482650, “Quantitative fragmentomics allow affinity mapping of interactomes” (Nature Communications, 2022):

What was measured:
Test in all cases: holdup assay
Parameters in all cases: key: below the threshold = too weak to quantify, mostly under pKd 3.1 to 4
Conditions in all cases: plain residues with an end cap or a label only (N-terminal biotin on a linker: ado-ado)
[1] = target: T1, DLG3_1, Q92796
T1 sequence (Q92796 125-227, limits assumed, looked up): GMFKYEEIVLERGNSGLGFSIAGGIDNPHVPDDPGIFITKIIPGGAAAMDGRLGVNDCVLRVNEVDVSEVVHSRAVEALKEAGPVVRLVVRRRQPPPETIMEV

[2] = target: T2, DLG3_2, Q92796
T2 sequence (Q92796 221-321, limits assumed, looked up): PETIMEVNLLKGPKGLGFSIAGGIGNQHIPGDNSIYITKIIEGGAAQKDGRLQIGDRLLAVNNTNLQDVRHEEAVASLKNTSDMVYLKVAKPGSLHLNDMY

[3] = target: DLG4_1, P78352
[4] = target: T3, FRMPD1, Q5SYB0
T3 sequence (Q5SYB0 52-145, limits assumed, looked up): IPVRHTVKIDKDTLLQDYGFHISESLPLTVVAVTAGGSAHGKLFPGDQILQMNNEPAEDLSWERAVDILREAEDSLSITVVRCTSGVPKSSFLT

[5] = target: FRMPD2_1, Q68DX3
[6] = target: FRMPD2_2, Q68DX3
[7] = target: GOPC, Q9HD26
[8] = target: GORASP2, Q9H8Y8
[9] = target: T4, GRIP1_5, Q9Y3R0
T4 sequence (Q9Y3R0 568-668, limits assumed, looked up): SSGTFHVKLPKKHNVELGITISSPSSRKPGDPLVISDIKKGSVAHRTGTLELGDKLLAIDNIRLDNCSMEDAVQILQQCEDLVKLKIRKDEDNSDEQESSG

[10] = target: HTRA2, O43464
[11] = target: Inadl_3, Q8NI35
[12] = target: Inadl_6, Q8NI35
[13] = target: Inadl_8, Q8NI35
[14] = target: T5, LNX2_2, Q8N448
T5 sequence (Q8N448 334-432, limits assumed, looked up): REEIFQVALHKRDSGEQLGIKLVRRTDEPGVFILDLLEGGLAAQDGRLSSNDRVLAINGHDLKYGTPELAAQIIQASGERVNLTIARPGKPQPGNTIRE

[15] = target: MAGI2_4, Q86UL8
[16] = target: MAGI2_5, Q86UL8
[17] = target: MAST1, Q9Y2H9
[18] = target: MAST2, Q6P0Q8
[19] = target: T6, MPDZ_12, O75970
T6 sequence (O75970 1857-1958, limits assumed, looked up): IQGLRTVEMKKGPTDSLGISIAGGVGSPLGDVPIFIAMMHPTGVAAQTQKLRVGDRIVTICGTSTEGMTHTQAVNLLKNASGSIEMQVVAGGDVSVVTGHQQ

[20] = target: T7, PARD3B_1, Q8TEW8
T7 sequence (Q8TEW8 196-299, limits assumed, looked up): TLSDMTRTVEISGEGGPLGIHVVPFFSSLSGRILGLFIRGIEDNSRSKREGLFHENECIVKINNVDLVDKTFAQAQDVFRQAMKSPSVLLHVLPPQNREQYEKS

[21] = target: PICK1, Q9NRD5
[22] = target: PTPN3, P26045
[23] = target: T8, RAPGEF6, Q8TEU7
T8 sequence (Q8TEU7 525-625, limits assumed, looked up): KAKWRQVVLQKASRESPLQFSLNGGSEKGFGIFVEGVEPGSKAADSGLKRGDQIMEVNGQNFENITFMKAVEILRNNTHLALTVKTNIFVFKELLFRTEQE

[24] = target: SCRIB_3, Q14160
[25] = target: T9, SNTB1, Q13884
T9 sequence (Q13884 107-205, limits assumed, looked up): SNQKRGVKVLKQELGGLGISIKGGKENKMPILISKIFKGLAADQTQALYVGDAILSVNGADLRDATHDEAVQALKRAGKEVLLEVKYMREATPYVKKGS

[26] = target: TJP2_1, Q9UDY2
[27] = target: T10, TX1BP3, O14907
T10 sequence (O14907 10-122, limits assumed, looked up): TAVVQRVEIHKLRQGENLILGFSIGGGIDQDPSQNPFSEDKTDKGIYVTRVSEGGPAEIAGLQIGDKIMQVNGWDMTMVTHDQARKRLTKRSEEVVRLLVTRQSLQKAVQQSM

Sequence of HTRA2, O43464 (O43464 355-458): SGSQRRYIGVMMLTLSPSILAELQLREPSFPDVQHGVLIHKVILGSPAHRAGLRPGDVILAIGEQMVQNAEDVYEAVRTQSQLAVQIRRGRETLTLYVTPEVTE
Sequence of SCRIB_3, Q14160 (Q14160 999-1103): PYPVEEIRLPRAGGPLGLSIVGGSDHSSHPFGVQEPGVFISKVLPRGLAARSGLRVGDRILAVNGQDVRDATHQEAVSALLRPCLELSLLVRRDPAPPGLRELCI
Sequence of Inadl_3, Q8NI35 (Q8NI35 359-469): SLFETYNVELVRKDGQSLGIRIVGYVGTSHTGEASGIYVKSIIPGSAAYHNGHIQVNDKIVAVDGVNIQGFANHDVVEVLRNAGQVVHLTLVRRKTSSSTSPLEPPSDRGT
Sequence of MAST1, Q9Y2H9 (Q9Y2H9 962-1065): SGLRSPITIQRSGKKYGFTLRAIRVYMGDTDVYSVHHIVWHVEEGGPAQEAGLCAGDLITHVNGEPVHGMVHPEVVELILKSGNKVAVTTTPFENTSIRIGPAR
Sequence of MAST2, Q6P0Q8 (Q6P0Q8 1099-1202): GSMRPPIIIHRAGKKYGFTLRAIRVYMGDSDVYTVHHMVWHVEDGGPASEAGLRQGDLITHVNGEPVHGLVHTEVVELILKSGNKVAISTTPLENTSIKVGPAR
Sequence of MAGI2_5, Q86UL8 (Q86UL8 915-1017): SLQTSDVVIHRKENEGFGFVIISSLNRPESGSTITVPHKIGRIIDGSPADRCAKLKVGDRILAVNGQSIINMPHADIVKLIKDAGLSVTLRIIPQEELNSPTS
Sequence of Inadl_8, Q8NI35 (Q8NI35 1425-1530): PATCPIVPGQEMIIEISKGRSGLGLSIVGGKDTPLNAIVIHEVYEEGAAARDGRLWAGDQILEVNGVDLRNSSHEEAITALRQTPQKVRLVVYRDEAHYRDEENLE
Sequence of Inadl_6, Q8NI35 (Q8NI35 1058-1167): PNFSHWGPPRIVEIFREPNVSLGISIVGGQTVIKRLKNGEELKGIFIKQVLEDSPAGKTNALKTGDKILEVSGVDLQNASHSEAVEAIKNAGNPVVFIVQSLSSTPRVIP
Sequence of TJP2_1, Q9UDY2 (Q9UDY2 24-128): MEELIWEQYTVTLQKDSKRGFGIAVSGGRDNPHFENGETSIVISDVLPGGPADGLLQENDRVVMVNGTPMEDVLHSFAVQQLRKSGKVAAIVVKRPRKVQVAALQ
Sequence of MAGI2_4, Q86UL8 (Q86UL8 772-865): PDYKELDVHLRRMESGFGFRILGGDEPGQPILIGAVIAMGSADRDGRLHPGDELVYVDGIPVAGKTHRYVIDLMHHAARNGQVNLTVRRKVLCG
Sequence of FRMPD2_2, Q68DX3 (Q68DX3 944-1038): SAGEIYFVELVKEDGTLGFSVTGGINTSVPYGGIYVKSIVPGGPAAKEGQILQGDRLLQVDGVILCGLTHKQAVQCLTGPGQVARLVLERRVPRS
Sequence of DLG4_1, P78352 (P78352 62-152): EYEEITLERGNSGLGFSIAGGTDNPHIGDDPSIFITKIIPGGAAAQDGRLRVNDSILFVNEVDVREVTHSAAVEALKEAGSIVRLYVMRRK
Sequence of PTPN3, P26045 (P26045 505-587): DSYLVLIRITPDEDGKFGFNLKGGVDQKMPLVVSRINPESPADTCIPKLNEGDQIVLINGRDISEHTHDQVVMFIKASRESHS
Sequence of PICK1, Q9NRD5 (Q9NRD5 17-115): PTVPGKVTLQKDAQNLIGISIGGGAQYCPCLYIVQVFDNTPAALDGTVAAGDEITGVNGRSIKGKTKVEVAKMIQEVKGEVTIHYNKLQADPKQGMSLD
Sequence of FRMPD2_1, Q68DX3 (Q68DX3 770-861): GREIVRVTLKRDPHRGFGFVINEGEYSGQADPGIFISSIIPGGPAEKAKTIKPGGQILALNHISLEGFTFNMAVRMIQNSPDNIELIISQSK

B1: STK16, O75716 (peptide)
chain: PAPGQHTTQI
pKd [1]: below the threshold | pKd [2]: 4.11 | pKd [3]: below the threshold | pKd [4]: below the threshold | pKd [5]: below the threshold | pKd [6]: 3.48 | pKd [7]: 3.77 | pKd [8]: 3.54 | pKd [9]: below the threshold | pKd [10]: below the threshold | pKd [11]: below the threshold | pKd [12]: below the threshold | pKd [13]: below the threshold | pKd [14]: below the threshold | pKd [15]: 3.5 | pKd [16]: below the threshold | pKd [17]: 4.37 | pKd [18]: 5.27 | pKd [19]: below the threshold | pKd [20]: 3.69 | pKd [21]: 4.07 | pKd [22]: 4.21 | pKd [23]: 3.49 | pKd [24]: 4.18 | pKd [25]: 3.57 | pKd [26]: below the threshold | pKd [27]: 4.12

B2: EFNB3, Q15768 (peptide)
chain: QSPPNIYYKV
pKd [1]: below the threshold | pKd [2]: below the threshold | pKd [3]: below the threshold | pKd [4]: below the threshold | pKd [5]: 3.79 | pKd [6]: below the threshold | pKd [7]: 3.51 | pKd [8]: 4.99 | pKd [9]: below the threshold | pKd [10]: 4.3 | pKd [11]: 3.5 | pKd [12]: below the threshold | pKd [13]: below the threshold | pKd [14]: 4.27 | pKd [15]: 3.69 | pKd [16]: below the threshold | pKd [17]: 4.07 | pKd [18]: 4.54 | pKd [19]: below the threshold | pKd [20]: 3.77 | pKd [21]: below the threshold | pKd [22]: 4.05 | pKd [23]: below the threshold | pKd [24]: below the threshold | pKd [25]: below the threshold | pKd [26]: below the threshold | pKd [27]: below the threshold

B3: CLDN19, Q8N6F1 (peptide)
chain: PASAKGPLGV
pKd [1]: below the threshold | pKd [2]: below the threshold | pKd [3]: below the threshold | pKd [4]: below the threshold | pKd [5]: below the threshold | pKd [6]: below the threshold | pKd [7]: below the threshold | pKd [8]: below the threshold | pKd [9]: below the threshold | pKd [10]: below the threshold | pKd [11]: below the threshold | pKd [12]: below the threshold | pKd [13]: below the threshold | pKd [14]: below the threshold | pKd [15]: below the threshold | pKd [16]: below the threshold | pKd [17]: 3.69 | pKd [18]: below the threshold | pKd [19]: below the threshold | pKd [20]: below the threshold | pKd [21]: below the threshold | pKd [22]: below the threshold | pKd [23]: below the threshold | pKd [24]: below the threshold | pKd [25]: below the threshold | pKd [26]: below the threshold | pKd [27]: below the threshold

B4: PPFIA1, Q13136 (peptide)
chain: DSATVRTYSC
pKd [1]: below the threshold | pKd [2]: 4.08 | pKd [3]: below the threshold | pKd [4]: below the threshold | pKd [5]: 4.49 | pKd [6]: below the threshold | pKd [7]: below the threshold | pKd [8]: 3.62 | pKd [9]: below the threshold | pKd [10]: 3.66 | pKd [11]: below the threshold | pKd [12]: below the threshold | pKd [13]: below the threshold | pKd [14]: 4.02 | pKd [15]: below the threshold | pKd [16]: below the threshold | pKd [17]: below the threshold | pKd [18]: 3.98 | pKd [19]: below the threshold | pKd [20]: 3.57 | pKd [21]: 4.15 | pKd [22]: 3.68 | pKd [23]: below the threshold | pKd [24]: below the threshold | pKd [25]: below the threshold | pKd [26]: below the threshold | pKd [27]: below the threshold
